Assay results from patent US20220031840A1, “Method of Treatment” (HaemaLogix Pty Ltd, priority 2018, published 2022).

Test: Phase 1 safety and tolerability of single IV infusion of kappamab (adverse events, laboratory, ECG)
[1] = All treatment-emergent AEs, Grade 1-3, 0.3 mg/kg (N = 3)
[2] = All treatment-emergent AEs, Grade 1-3, 1.0 mg/kg (N = 3)
[3] = All treatment-emergent AEs, Grade 1-3, 3.0 mg/kg (N = 3)
[4] = All treatment-emergent AEs, Grade 1-3, 10 mg/kg (N = 3)
[5] = All treatment-emergent AEs, Grade 1-3, Overall (N = 12)
[6] = All treatment-emergent AEs, Grade 4/5, 0.3 mg/kg (N = 3)
[7] = All treatment-emergent AEs, Grade 4/5, 1.0 mg/kg (N = 3)
[8] = All treatment-emergent AEs, Grade 4/5, 3.0 mg/kg (N = 3)
[9] = All treatment-emergent AEs, Grade 4/5, 10 mg/kg (N = 3)
[10] = All treatment-emergent AEs, Grade 4/5, Overall (N = 12)
[11] = All treatment-emergent AEs, Total, 0.3 mg/kg (N = 3)
[12] = All treatment-emergent AEs, Total, 1.0 mg/kg (N = 3)
[13] = All treatment-emergent AEs, Total, 3.0 mg/kg (N = 3)
[14] = All treatment-emergent AEs, Total, 10 mg/kg (N = 3)
[15] = All treatment-emergent AEs, Total, Overall (N = 12)
[16] = Possibly, probably, or definitely related AEs, Grade 1-3, 0.3 mg/kg (N = 3)
[17] = Possibly, probably, or definitely related AEs, Grade 1-3, 1.0 mg/kg (N = 3)
[18] = Possibly, probably, or definitely related AEs, Grade 1-3, 3.0 mg/kg (N = 3)
[19] = Possibly, probably, or definitely related AEs, Grade 1-3, 10 mg/kg (N = 3)
[20] = Possibly, probably, or definitely related AEs, Grade 1-3, Overall (N = 12)
[21] = Possibly, probably, or definitely related AEs, Grade 4/5, 0.3 mg/kg (N = 3)
[22] = Possibly, probably, or definitely related AEs, Grade 4/5, 1.0 mg/kg (N = 3)
[23] = Possibly, probably, or definitely related AEs, Grade 4/5, 3.0 mg/kg (N = 3)
[24] = Possibly, probably, or definitely related AEs, Grade 4/5, 10 mg/kg (N = 3)
[25] = Possibly, probably, or definitely related AEs, Grade 4/5, Overall (N = 12)
[26] = Possibly, probably, or definitely related AEs, Total, 0.3 mg/kg (N = 3)
[27] = Possibly, probably, or definitely related AEs, Total, 1.0 mg/kg (N = 3)
[28] = Possibly, probably, or definitely related AEs, Total, 3.0 mg/kg (N = 3)
[29] = Possibly, probably, or definitely related AEs, Total, 10 mg/kg (N = 3)
[30] = Possibly, probably, or definitely related AEs, Total, Overall (N = 12)
[31] = Related AEs by System Organ Class, Overall total, 0.3 mg/kg (N = 3)
[32] = Related AEs by System Organ Class, Overall total, 1.0 mg/kg (N = 3)
[33] = Related AEs by System Organ Class, Overall total, 3.0 mg/kg (N = 3)
[34] = Related AEs by System Organ Class, Overall total, 10 mg/kg (N = 3)
[35] = Related AEs by System Organ Class, Overall total, Overall (N = 12)
[36] = Related AEs: Dyspnea, 10 mg/kg (N = 3)
[37] = Related AEs: Dyspnea, Overall (N = 12)
[38] = Related AEs: Eructation, 10 mg/kg (N = 3)

Procedure: Patients on maintenance therapy (thalidomide or lenalidomide) were also eligible for inclusion. Patients were excluded from the study if their serum κFLC was greater than 250 mg/L.
The pharmacodynamics of serum κFLC was also assessed. Drug-target modulation of cell signalling pathways was determined by measuring pro-inflammatory and anti-inflammatory cytokines, chemokines, and growth factors in patient serum at specific time intervals.
After providing HREC-approved consent, patients were screened and assessed for study eligibility.
Within each dose cohort only 1 patient per week was to be treated. […] Premedication was not mandated, however, paracetamol (acetaminophen), corticosteroids, and antihistamines were allowed for the treatment of infusion reactions.
Evaluation of safety and tolerability during treatment included vital signs, physical examination, electrocardiogram (ECG), haematology assessments, clinical chemistry, C-reactive protein, β2-microglobulin, immunoglobulin quantification, urinalysis, creatinine clearance, collection of adverse events (AEs), and drug-induced toxicity. All AEs were graded using the Cancer Therapy Evaluation Program Common Terminology Criteria for Adverse Events, version 3.0.

kappamab: humanized form of K121 anti-KMA antibody; VH SEQ ID NO: 1, VL SEQ ID NO: 2
DLT or discontinuation due to an AE (0.3-10 mg/kg): no patients who experienced a DLT or discontinued the study due to an AE | Patients with nausea (most frequently reported AE) (2/12 patients): 17% | Patients who experienced study drug-related AEs (2/12 patients, at the highest dose level (10 mg/kg)): 17% | AEs that were grade 1 or 2 (17/18 events): 94% | Number of patients with AEs (%) [1]: 2 (66%) | number of AEs [1]: 4 | Number of patients with AEs (%) [2]: 3 (100%) | number of AEs [2]: 3 | Number of patients with AEs (%) [3]: 1 (33%) | number of AEs [3]: 2 | Number of patients with AEs (%) [4]: 2 (67%) | number of AEs [4]: 9 | Number of patients with AEs (%) [5]: 8 (67%) | number of AEs [5]: 18 | Number of patients with AEs (%) [6]: 0 (0%) | number of AEs [6]: 0 | Number of patients with AEs (%) [7]: 0 (0%) | number of AEs [7]: 0 | Number of patients with AEs (%) [8]: 0 (0%) | number of AEs [8]: 0 | Number of patients with AEs (%) [9]: 0 (0%) | number of AEs [9]: 0 | Number of patients with AEs (%) [10]: 0 (0%) | number of AEs [10]: 0 | Number of patients with AEs (%) [11]: 2 (67%) | number of AEs [11]: 4 | Number of patients with AEs (%) [12]: 3 (100%) | number of AEs [12]: 3 | Number of patients with AEs (%) [13]: 1 (33%) | number of AEs [13]: 2 | Number of patients with AEs (%) [14]: 2 (67%) | number of AEs [14]: 9 | Number of patients with AEs (%) [15]: 8 (67%) | number of AEs [15]: 18 | Patients who experienced treatment-emergent AEs (Eight of the 12 patients, all doses): 67% | Number of patients with AEs (%) [16]: 0 (0%) | number of AEs [16]: 0 | Number of patients with AEs (%) [17]: 0 (0%) | number of AEs [17]: 0 | Number of patients with AEs (%) [18]: 0 (0%) | number of AEs [18]: 0 | Number of patients with AEs (%) [19]: 2 (67%) | number of AEs [19]: 6 | Number of patients with AEs (%) [20]: 2 (17%) | number of AEs [20]: 6 | Number of patients with AEs (%) [21]: 0 (0%) | number of AEs [21]: 0 | Number of patients with AEs (%) [22]: 0 (0%) | number of AEs [22]: 0 | Number of patients with AEs (%) [23]: 0 (0%) | number of AEs [23]: 0 | Number of patients with AEs (%) [24]: 0 (0%) | number of AEs [24]: 0 | Number of patients with AEs (%) [25]: 0 (0%) | number of AEs [25]: 0 | Number of patients with AEs (%) [26]: 0 (0%) | number of AEs [26]: 0 | Number of patients with AEs (%) [27]: 0 (0%) | number of AEs [27]: 0 | Number of patients with AEs (%) [28]: 0 (0%) | number of AEs [28]: 0 | Number of patients with AEs (%) [29]: 2 (67%) | number of AEs [29]: 6 | Number of patients with AEs (%) [30]: 2 (17%) | number of AEs [30]: 6 | Number of patients with AEs (%) [31]: 0[0] | number of AEs [31]: 0[0] | Number of patients with AEs (%) [32]: 0[0] | number of AEs [32]: 0[0] | Number of patients with AEs (%) [33]: 0[0] | number of AEs [33]: 0[0] | Number of patients with AEs (%) [34]: 2 (67%) | number of AEs [34]: 6 | Number of patients with AEs (%) [35]: 2 (17%) | number of AEs [35]: 6 | Number of patients with AEs (%) [36]: 1(33%) | number of AEs [36]: 1 | Number of patients with AEs (%) [37]: 1 (8.3%) | number of AEs [37]: 1 | Number of patients with AEs (%) [38]: 1 (33%) | number of AEs [38]: 1
